The chains are these.
B1: Azoarcus group I ribozyme (parent)
chain: GUGCCUUGCGCCGGGAAACCACGCAAGGGAUGGUGUCAAAUUCGGCGAAACCUAAGCGCCCGCCCGGGCGUAUGGCAACGCCGAGCCAAGCUUCGGCGCCUGCGCCGAUGAAGGUGUAGAGACUAGACGGCACCCACCUAAGGCAAACGCUAUGGUGAAGGCAUAGUCCAGGGAGUGGCGAAAGUCACACAAACCGG

83 variants from the RNAGym collection of RNA variant scans (doi:10.1093/molbev/msab373) can be followed below.

The data set covers variants of B1. Nature of the data set: reverse-splicing fitness (ratio to wild type); higher = more active; in vitro selection; Mg2+ level not given. Summed up:
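An in vitro group I ribozyme library with randomized positions was T7-transcribed and gel-purified. In triplicate, 10 pmol RNA in EPPS pH 7.5 was reacted with 50 pmoles of a 30-nt RNA substrate for 1 h at 37 °C across several added MgCl2 levels (1–48 mM), then stopped with EDTA. Products were reverse transcribed from a substrate-complementary primer, PCR-amplified and sequenced (HiSeq 4000). Fitness is a variant's read proportion after selection over that before, normalised to wild type.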
As for C82G A111U A120G A145C C150A U176A, the reverse-splicing fitness stood at 0.00962.
For C82G A111U A120G A145C C150A U176G the value was 0.00582; for C82G A111U A120G A145C C150A U176C, 0.0103.
For C82G A111U A120G A145C C150U C169U U176A the value was 0.019; for C82G A111U A120G A145C C150U C169U U176C, 0.013.
Turning to C82G A111U A120G A145C C150U C169U U176G, the reverse-splicing fitness came to 0.00513.
For C82G A111U A120G A145C C150U U176A the value was 0.00941; for C82G A111U A120G A145C C150U U176C, 0.012.
For C82G A111U A120G A145C C150U U176G the value was 0.00601.
With C82G A111U A120G A145C C150A C169U U176C the figure was 0.0103.
For the variant C82G A111U A120G A145C C150A C169U U176A, the reverse-splicing fitness is 0.0211.
For C82G A111U A120G A145C C150A C169U U176G the value was 0.00529; for C82G A111U A120C C150U U176G, 0.00892; for C82G A111U A120C C150U U176C, 0.0248.
For C82G A111U A120C C150U U176A, the reverse-splicing fitness was 0.0133.
With C82G A111U A120C C150G C169A U176A the figure was 0.0137.
For C82G A111U A120C C150G C169A U176C the value was 0.0141; for C82G A111U A120C C150G C169A U176G, 0.00844.
For C82G A111U A120G A145C C150A C169G the value was 0.00827.
Take C82G A111U A120G A145C C150A C169A: the reverse-splicing fitness was 0.00828.
With C82G A111U A120G A145C C150A C169U the figure was 0.00694; with C82G A111U A120G A145C C169U U176G, 0.00479; with C82G A111U A120G A145C C169U U176A, 0.0203.
With C82G A111U A120G A145C C169U U176C the figure was 0.0168; with C82G A111U A120C C150A C169U, 0.0114.
With C82G A111U A120C C150A C169A the figure was 0.0127.
Consider C82G A111U A120C C150A C169G, for which the reverse-splicing fitness worked out at 0.00894.
With C82G A111U A120G A145G C150G the figure was 0.00786.
For C82G A111U A120G A145G C150A the value was 0.00899; for C82G A111U A120G A145G C150U, 0.0139.
With C82G A111U A120G A145C C150G C169U U176A the figure was 0.0121; with C82G A111U A120G A145C C150G C169U U176G, 0.00569.
Take C82G A111U A120G A145C C150G C169U U176C: the reverse-splicing fitness was found to be 0.0123.
With C82G A111U A120C C169G U176G the figure was 0.00577; with C82G A111U A120C C169G U176C, 0.0244; with C82G A111U A120C C169G U176A, 0.0203.
With C82G A111U A120C C150U C169U the figure was 0.0125.
For C82G A111U A120C C150U C169A the value was 0.0105; for C82G A111U A120C C150U C169G, 0.00965; for C82G A111U A120C C150G C169U, 0.0106.
On to C82G A111U A120C C150G C169G, for which the reverse-splicing fitness is 0.00753.
With C82G A111U A120C C150G C169A the figure was 0.00975.
For C82G A111U A120G A145C C150G C169G the value was 0.00796; for C82G A111U A120G A145C C150G C169U, 0.0084; for C82G A111U A120G A145C C150G C169A, 0.00877.
With C82G A111U A120G A145G C150G U176G the figure was 0.00601; with C82G A111U A120G A145G C150G U176C, 0.0109; with C82G A111U A120G A145G C150G U176A, 0.00727.
For the variant C82G A111U A120C C150G, the reverse-splicing fitness was determined as 0.00875.
C82G A111U A120C C150A: the reverse-splicing fitness is 0.0117.
With C82G A111U A120C C150U the figure was 0.0329; with C82G A111U A120G A145C C150A C169G U176G, 0.00516; with C82G A111U A120G A145C C150A C169G U176C, 0.0144.
For C82G A111U A120G A145C C150A C169G U176A the value was 0.0229; for C82G A111U A120G A145G C150G C169G U176A, 0.0104.
With C82G A111U A120G A145G C150G C169G U176G the figure was 0.00621; with C82G A111U A120G A145G C150G C169G U176C, 0.0116; with C82G A111U A120C C150G U176A, 0.00531.
In the case of C82G A111U A120C C150G U176G, the reverse-splicing fitness came out at 0.00396.
With C82G A111U A120C C150G U176C the figure was 0.009; with C82G A111U A120C C150A C169A U176G, 0.00867.
For C82G A111U A120C C150A C169A U176C the value was 0.0217; for C82G A111U A120C C150A C169A U176A, 0.0237; for C82G A111U A120G A145C C169G U176A, 0.0245.
As to C82G A111U A120G A145C C169G U176C, the reverse-splicing fitness worked out at 0.0172.
With C82G A111U A120G A145C C169G U176G the figure was 0.00404; with C82G A111U A120G A145G C150A C169A, 0.0109; with C82G A111U A120G A145G C150A C169G, 0.00903.
With C82G A111U A120G A145G C150A C169U the figure was 0.00945.
With C82G A111U A120G A145G C150G C169A U176G the figure was 0.00831; with C82G A111U A120G A145G C150G C169A U176C, 0.0126; with C82G A111U A120G A145G C150G C169A U176A, 0.0133.
As for C82G A111U A120G A145G C150G C169U U176A, the reverse-splicing fitness stood at 0.0116.
With C82G A111U A120G A145G C150G C169U U176C the figure was 0.0128.
For C82G A111U A120G A145G C150G C169U U176G the value was 0.00754; for C82G A111U A120G A145C C150G U176G, 0.00342.
With C82G A111U A120G A145C C150G U176C, the reverse-splicing fitness was 0.0105.
With C82G A111U A120G A145C C150G U176A the figure was 0.0058.
With C82G A111U A120G A145C C169A U176C the figure was 0.00976.
With C82G A111U A120G A145C C169A U176G the figure was 0.00399.
As to C82G A111U A120G A145C C169A U176A, the reverse-splicing fitness turned out to be 0.0152.
With C82G A111U A120C C150G C169G U176A the figure was 0.00766.
In the case of C82G A111U A120C C150G C169G U176G, the reverse-splicing fitness was 0.00747.
